Test results published in patent US20230279131A1 (published 2023).
One block for each binder: values may come before it.

Legend:
[1] = molecular target: T1, human IL-2Rγ expressed on cells (human, UniProt P31785 23-369); test: flow cytometry on NK-92 cells, antibody at 10 µg/ml; low end of the range, tied to H4H12859P by Table 9-1
T1 construct: whole, on cells; endogenous receptor on human cells; also called IL-2Rgamma; CD132
T1 sequence (looked up): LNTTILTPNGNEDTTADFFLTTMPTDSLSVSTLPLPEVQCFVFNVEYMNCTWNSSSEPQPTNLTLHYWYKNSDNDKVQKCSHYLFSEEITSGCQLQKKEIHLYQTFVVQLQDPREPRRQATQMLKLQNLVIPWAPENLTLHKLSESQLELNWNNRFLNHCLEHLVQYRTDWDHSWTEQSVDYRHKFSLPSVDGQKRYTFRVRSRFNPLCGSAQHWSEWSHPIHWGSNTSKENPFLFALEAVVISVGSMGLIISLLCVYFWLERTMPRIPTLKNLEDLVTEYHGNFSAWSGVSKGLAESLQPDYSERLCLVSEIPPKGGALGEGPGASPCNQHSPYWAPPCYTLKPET

[2] = molecular target: T2, D2 domain of human IL2Rγ extracellular domain expressed with a C-terminal myc-myc-hexahistidine tag (human); test: SPR Biacore 4000, mAb captured on anti-hFc, 25°C
T2 construct: whole entry is the tagged construct
T2 chain: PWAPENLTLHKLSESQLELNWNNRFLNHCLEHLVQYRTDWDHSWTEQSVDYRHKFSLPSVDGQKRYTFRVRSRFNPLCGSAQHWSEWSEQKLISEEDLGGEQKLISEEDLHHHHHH
Description: (§1) Equilibrium dissociation constants (KD values) for IL-2Rγ binding to purified anti-IL2Rγ monoclonal antibodies were determined using a Biacore 4000 instrument equipped with a real-time surface plasmon resonance biosensor. All binding studies were performed in 10 mM HEPES, 150 mM NaCl, 3 mM EDTA, and 0.05% v/v Surfactant Tween-20, pH 7.4 (HBS-ET) running buffer at 25° C. and 37° C. The Biacore sensor surface was first derivatized by amine coupling with a monoclonal mouse anti-human Fc antibody (GE, #BR-1008-39) to capture anti-IL2Rγ monoclonal antibodies.

[3] = molecular target: T2, D2 domain of human IL2Rγ extracellular …; test: SPR Biacore 4000, mAb captured on anti-hFc, 37°C
Description: as §1

[4] = molecular target: T1, human IL-2Rγ expressed on cells; test: flow cytometry on NK-92 cells, antibody at 10 µg/ml; high end of the range, tied to 'H4H13841P' (taken as H4H13541P) by Table 9-2
[5] = molecular target: T1, human IL-2Rγ expressed on cells; test: flow cytometry on NK-92 cells, antibody at 10 µg/ml; high end of the range, tied to H4H12889P by Table 9-1
[6] = molecular target: T1, human IL-2Rγ expressed on cells; test: flow cytometry on Jurkat cells, antibody at 10 µg/ml; high end of the range, tied to H4H12889P by Table 9-1
[7] = molecular target: T3, D1 domain of human IL-2Rγ extracellular domain expressed with a C-terminal myc-myc-hexahistidine tag (human); test: SPR Biacore 4000, mAb captured on anti-hFc, 25°C
T3 construct: whole entry is the tagged construct
T3 chain: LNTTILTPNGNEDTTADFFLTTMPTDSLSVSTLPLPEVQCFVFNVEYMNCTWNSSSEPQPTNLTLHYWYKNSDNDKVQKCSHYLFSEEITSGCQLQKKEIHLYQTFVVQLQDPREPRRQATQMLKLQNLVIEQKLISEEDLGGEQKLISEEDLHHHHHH
Description: as §1

[8] = molecular target: T3, D1 domain of human IL-2Rγ extracellular …; test: SPR Biacore 4000, mAb captured on anti-hFc, 37°C
Description: as §1

[9] = molecular target: T4, Human IL2Rγ extracellular domain expressed with a C-terminal myc-myc-hexahistidine tag (human); test: SPR Biacore 4000, mAb captured by anti-hFc, HBS-ET, 25C
T4 construct: also called hIL-2Rg-MMH; hIL-2RG-MMH
T4 chain: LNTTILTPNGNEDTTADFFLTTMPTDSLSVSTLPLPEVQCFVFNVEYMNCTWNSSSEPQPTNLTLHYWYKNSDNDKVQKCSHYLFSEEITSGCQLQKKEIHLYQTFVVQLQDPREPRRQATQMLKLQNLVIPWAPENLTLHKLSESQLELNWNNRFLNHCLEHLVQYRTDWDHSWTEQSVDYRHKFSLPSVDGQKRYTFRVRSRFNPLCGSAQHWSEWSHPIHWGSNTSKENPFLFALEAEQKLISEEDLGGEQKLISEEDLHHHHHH
Description: as §1

[10] = molecular target: T4, Human IL2Rγ extracellular domain …; test: SPR Biacore 4000, mAb captured by anti-hFc, HBS-ET, 37C
Description: as §1

[11] = molecular target: T1, human IL-2Rγ expressed on cells; test: flow cytometry on NK-92 cells, antibody at 10 µg/ml; low end of the range, tied to H4H13538P by Table 9-2

- 100 nM Ag Bound [2]: 10 RU
- 100 nM Ag Bound [3]: 2 RU
B2: H4H12874P (antibody, human IgG4 S228P, kappa, V domains shown)
VH: QVQLVESGGGVVQPGRSLRLSCAASGFNFRNFGMHWVRQAPGKGLEWVAGILYDGSSKYYADSVKDRFTISRDNSKNTLFLQMNSLRAEDTAMYYCAKEEDTAMVPFDSWGPGTLVTVSS
VL: DIQLTQSPSFLSASVGDRVTITCWASQGISSYLAWYQQKPGKAPTLLIYAASTLQSGVPSRFSGSGSGTEFTLTISSLQPEDFASYYCQQLKSYPLTFGGGTKVEIKR
notes: anti-IL2Rγ mAb expressed with human IgG4 Fc

- binding ratio (sample MFI over unstained MFI) [4]: 37 ratio
B3: H4H13541P (antibody, human IgG4 S228P, kappa, V domains shown)
VH: EVQLVESGGGVVRPGGSLRLSCAASGFIFDDYDMSWVRQPPGRGLEWVSGIDWFGGTRGYADSMKGRFTISRDNAKNSLYLQMNSLRVEDTAFYYCARGGAIVGAVTPFDYWGQGTLVTVSS
VL: DIQMTQSPSSLSASVGNRVTLSCRASQSINTYLSWYQQRPGKAPKLLIYAASSLQSGVPSRFSGSGAGTDFTLTISSLQPEDFATYYCQQSYSAPLTFGGGTKVEIKR
notes: anti-IL2Rγ human antibody, human IgG4 Fc; also called H4H13841P

- binding ratio (sample MFI over unstained MFI) [5]: 94 ratio
- binding ratio (sample MFI over unstained MFI) [6]: 19 ratio
B4: H4H12889P (antibody, human IgG4 S228P, kappa, V domains shown)
VH: EVQLVESGGGLVQPGGSLRLSCAASGFIFSSYEMHWVRQAPGKGLEWISYISSSGTTIYYADSVKGRFTISRDNAKNSLYLHMNSLRAEDTAVYYCTRARITGTFDVFDIWGQGTMVTVSS
VL: DIQMTQSPSSLSASVGDRVTITCRASQSISSYLNWYQQKPGKAPKLLIFAASNLQSGVPSRFSGSRSGTDFTLTISSLQPEDFATYYCQQNYNIPYTFGQGTKLEIKR
notes: anti-IL2Rγ human antibody, human IgG4 Fc; also called REGN7257

- 100 nM Ag Bound [9]: 13 RU
- 100 nM Ag Bound [10]: 2 RU
B6: H4H12926P2 (antibody, human IgG4 S228P, kappa, V domains shown)
VH: QVQLQQSGPGLVKPSQTLSLTCAISGDSVSSNIAAWNWIRLSPSRGLEWLGRTFFRSTWFYDYSLSVKGRITINPDTSKNQFSLHLNSVTPEDAAVYYCARTGRRWSLDYWGQGTLVTVSS
VL: not shown
notes: anti-IL2Rgamma monoclonal antibody expressed with human IgG4 Fc

- 100 nM Ag Bound [9]: 18 RU
- 100 nM Ag Bound [10]: 5 RU
B8: H4H12927P2 (antibody, human IgG4 S228P, kappa, V domains shown)
VH: EVQLVESGGGVVRPGGSLRLSCATSGFTFDDYGMSWVRQVPGKGLEWVSSVNRNGGTTDYADSVKGRFTISRDNAKRSLFLQMNSLRAEDTALYHCATGELFFDYWGQGTLVTVSS
VL: not shown
notes: as for B6

Further lines, the binder ahead of its results:

B1: H4H12859P (antibody, human IgG4 S228P, kappa, V domains shown)
VH: QVQLVQSGAEVKKPGASVRVSCKASGYTFTDYDIHWVRQAPGHGLEWMGWINPNSGGTNYAQKFQGRVTMTRDTSISTVYMDLSRLRSDDTAVYYCARADYSSSYYYYGMDVWGQGTTVTVSS
VL: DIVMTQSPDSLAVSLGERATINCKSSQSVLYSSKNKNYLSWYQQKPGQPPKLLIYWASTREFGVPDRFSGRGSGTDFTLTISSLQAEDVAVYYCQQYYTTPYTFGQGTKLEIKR
notes: anti-IL2Rγ human antibody, human IgG4 Fc
- binding ratio (sample MFI over unstained MFI) [1]: 1 ratio

B5: H4H12926P2 (antibody, human IgG4 S228P, kappa, V domains shown)
VH: QVQLQQSGPGLVKPSQTLSLTCAISGDSVSSNIAAWNWIRLSPSRGLEWLGRTFFRSTWFYDYSLSVKGRITINPDTSKNQFSLHLNSVTPEDAAVYYCARTGRRWSLDYWGQGTLVTVSS
VL: not shown
notes: as for B2
- 100 nM Ag Bound [7]: 8 RU
- 100 nM Ag Bound [8]: 2 RU

B7: H4H12927P2 (antibody, human IgG4 S228P, kappa, V domains shown)
VH: EVQLVESGGGVVRPGGSLRLSCATSGFTFDDYGMSWVRQVPGKGLEWVSSVNRNGGTTDYADSVKGRFTISRDNAKRSLFLQMNSLRAEDTALYHCATGELFFDYWGQGTLVTVSS
VL: not shown
notes: as for B2
- 100 nM Ag Bound [2]: 14 RU
- 100 nM Ag Bound [3]: 2 RU

B9: H4H13538P (antibody, human IgG4 S228P, kappa, V domains shown)
VH: EVQLVESGGGLVQPGGSLGLSCAASGFTFSNYAMSWVRQAPGKGLEWVSAVSGGGGGTYYADSVKGRFTISRDNSKNTVLLQMNSLRAEDTAVYYCARGRTGGLDYWGPGTLVTVSS
VL: DVVMTQSPLSLPVIFGQPASISCRSSQSLVDSDGNTYLNWLQQRPGQSPRRLIYEVSNRDSGVPDRFSGSGSGTDFTLTISRVEAEDVGIYYCMQGTRWPPTFGGGTKVEIKR
notes: as for B1
- binding ratio (sample MFI over unstained MFI) [11]: 1 ratio
